The values below come from patent US20090081207A1 (published 2009).

Test [1] addresses T1, human α5β1 integrin (human, UniProt P08648 42-1049; P05556 21-798). In words: FACS titration on α5β1-positive HUVEC cells, monovalent Fab.
For test [2], the target named is T1, human α5β1 integrin. In words: FACS titration on α5β1-positive HUVEC cells, IgG.
Test [3] deals with T1, human α5β1 integrin. The experiment in a line: cell-based or functional assay.
Test [4] deals with T2, β1-integrin chain on HT29 wt cells (α5-chain negative) (human, UniProt P05556 21-798).
T2 construct: whole, on cells; Negative cell control: β1 present at high density, α5 absent
In words: immunoprecipitation from NP40 lysate of surface-biotinylated HT29 wt cells; streptavidin-AP blot. As to the method:
Surface-biotinylated NP40-lysates of HT29α5 and HT29 wt were incubated with Fab coupled to magnetic Dyna beads. The immunoprecipitates were transferred to PVDF-membranes and analysed with streptavidin alkaline phosphatase (AP).
IIA1 was used as a reference antibody. After intensive washing the precipitates were boiled in SDS-PAGE sample buffer under reducing conditions, blotted to PVDF-membranes and probed with streptavidine-AP. All anti-α5β1 integrin antibodies specifically precipitated a protein double kband of […] which corresponds to the expected molecular weight of the integrin chains α5 and β1 (FIG. 11) and was not found in the HT29 wt cell lysate. The same double band was found with IIA1.

Test [5] has as its target T1, human α5β1 integrin. The experiment in a line: cell-based or functional assay. This is another data set of the same source.
In test [6] the target is T2, β1-integrin chain on HT29 wt cells …. The experiment in a line: FACS, HT29 cells (α5-chain negative). A general note: Flow cytometry measures light scatter and fluorescence of single cells or particles in a stream.
In test [7] the target is T1, human α5β1 integrin. The experiment in a line: cell-based or functional assay. The source holds these as a separate data set.

Where “and” joins values, the source holds several entries; their conditions need not be identical. Equal entries are not always repeated.

T2 sequence (P05556 21-798): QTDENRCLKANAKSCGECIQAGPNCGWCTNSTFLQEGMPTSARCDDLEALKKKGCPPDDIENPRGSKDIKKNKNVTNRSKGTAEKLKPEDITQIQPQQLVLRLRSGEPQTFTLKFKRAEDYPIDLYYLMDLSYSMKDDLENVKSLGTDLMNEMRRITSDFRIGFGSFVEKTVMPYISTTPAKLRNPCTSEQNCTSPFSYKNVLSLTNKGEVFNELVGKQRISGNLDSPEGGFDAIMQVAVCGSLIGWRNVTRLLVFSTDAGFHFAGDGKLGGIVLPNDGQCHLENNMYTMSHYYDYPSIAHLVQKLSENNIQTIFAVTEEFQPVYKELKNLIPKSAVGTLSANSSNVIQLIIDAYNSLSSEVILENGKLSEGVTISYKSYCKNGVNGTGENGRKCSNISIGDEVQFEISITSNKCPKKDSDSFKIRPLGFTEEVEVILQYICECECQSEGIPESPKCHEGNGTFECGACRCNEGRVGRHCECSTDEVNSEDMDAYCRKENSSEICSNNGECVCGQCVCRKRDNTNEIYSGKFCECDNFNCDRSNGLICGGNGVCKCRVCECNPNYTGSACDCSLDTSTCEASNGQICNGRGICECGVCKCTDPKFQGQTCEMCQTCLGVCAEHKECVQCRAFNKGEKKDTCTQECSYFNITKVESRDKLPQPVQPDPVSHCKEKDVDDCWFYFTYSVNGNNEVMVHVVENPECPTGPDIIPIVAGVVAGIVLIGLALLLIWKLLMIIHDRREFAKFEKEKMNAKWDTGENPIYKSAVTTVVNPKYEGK
T1 sequence (P08648 42-1049, chain 1 of 2): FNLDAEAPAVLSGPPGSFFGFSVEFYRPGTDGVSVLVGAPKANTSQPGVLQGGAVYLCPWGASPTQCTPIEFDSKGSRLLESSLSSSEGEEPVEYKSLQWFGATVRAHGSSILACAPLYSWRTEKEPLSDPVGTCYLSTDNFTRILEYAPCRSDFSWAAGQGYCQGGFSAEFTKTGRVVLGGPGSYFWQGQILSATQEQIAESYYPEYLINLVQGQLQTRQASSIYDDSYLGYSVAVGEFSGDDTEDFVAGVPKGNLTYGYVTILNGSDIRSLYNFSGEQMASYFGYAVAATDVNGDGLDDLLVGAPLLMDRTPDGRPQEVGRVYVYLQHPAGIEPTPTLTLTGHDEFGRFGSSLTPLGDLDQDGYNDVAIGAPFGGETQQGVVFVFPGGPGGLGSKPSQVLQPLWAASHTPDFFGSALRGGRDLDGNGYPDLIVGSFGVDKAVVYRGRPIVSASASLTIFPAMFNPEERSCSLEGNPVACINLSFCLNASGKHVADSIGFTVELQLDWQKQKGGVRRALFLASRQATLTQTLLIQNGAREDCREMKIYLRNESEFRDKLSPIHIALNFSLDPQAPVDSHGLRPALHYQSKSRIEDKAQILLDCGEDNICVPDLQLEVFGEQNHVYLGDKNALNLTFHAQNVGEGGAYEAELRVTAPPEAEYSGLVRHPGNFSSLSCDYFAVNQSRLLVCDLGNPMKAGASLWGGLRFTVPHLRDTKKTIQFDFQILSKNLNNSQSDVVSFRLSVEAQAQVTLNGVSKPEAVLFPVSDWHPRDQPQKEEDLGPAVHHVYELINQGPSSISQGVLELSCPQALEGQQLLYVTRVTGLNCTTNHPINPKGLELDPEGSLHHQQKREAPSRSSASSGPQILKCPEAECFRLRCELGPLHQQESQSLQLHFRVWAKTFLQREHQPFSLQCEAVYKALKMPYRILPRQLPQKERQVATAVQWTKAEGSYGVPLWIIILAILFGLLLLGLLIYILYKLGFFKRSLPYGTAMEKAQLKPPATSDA
T1 sequence (P05556 21-798, chain 2 of 2): as the sequence (P05556 21-798) above

B1: MOR04055 Fab (Fab, V domains shown)
VH: QVQLVESGGGLVQPGGSLRLSCAASGFTFSNYAMNWVRQAPGKGLEWVSRISYSGSDTYYADSVKGRFTISRDNSKNTLYLQMNSLRAEDTAVYYCAREGEFGFMYSTLVFDSWGQGTLVTVSS
VL: DIELTQPPSVSVAPGQTARISCSGDSIGEQYAHWYQQKPGQAPVLVIYDDNKRPSGIPERFSGSNSGNTATLTISGTQAEDEADYYCGSYTLTNTASVFGGGTKLTVLG
Turning to B1, the Kd (usually the constant that tells how readily two partners part at equilibrium) in test [1] was 0.9 nM.

B2: MOR04055 IgG (antibody, V domains shown)
VH: QVQLVESGGGLVQPGGSLRLSCAASGFTFSNYAMNWVRQAPGKGLEWVSRISYSGSDTYYADSVKGRFTISRDNSKNTLYLQMNSLRAEDTAVYYCAREGEFGFMYSTLVFDSWGQGTLVTVSS
VL: DIELTQPPSVSVAPGQTARISCSGDSIGEQYAHWYQQKPGQAPVLVIYDDNKRPSGIPERFSGSNSGNTATLTISGTQAEDEADYYCGSYTLTNTASVFGGGTKLTVLG
Take B2: in test [2], the Kd was determined as 0.5 nM.

B3: MOR04971 Fab (Fab, V domains shown)
VH: QVQLVESGGGLVQPGGSLRLSCAASGFTFSNYAMNWVRQAPGKGLEWVSAIHDNGHTYYPDSVKGRFTISRDNSKNTLYLQMNSLRAEDTAVYYCAREGEFGFMYSTLVFDSWGQGTLVTVSS
VL: DIELTQPPSVSVAPGQTARISCSGDSIGEQYAHWYQQKPGQAPVLVIYDDNKRPSGIPERFSGSNSGNTATLTISGTQAEDEADYYCSSYTYSSDASVFGGGTKLTVLG
For the molecule B3, in test [3], the “IC50, XTT-proliferation assay on HUVEC” value was 0.21 µg/ml and 4.3 nM. Moreover, the binding result in test [4] is recorded as “no binding”.

B4: MOR04624 Fab (Fab, V domains shown)
VH: QVQLVESGGGLVQPGGSLRLSCAASGFTFSSYGMSWVRQAPGKGLEWVSSISYSDSNTYYADSVKGRFTISRDNSKNTLYLQMNSLRAEDTAVYYCARGLGDYGHHHGLSGIFDYWGQGTLVTVSS
VL: DIQMTQSPSSLSASVGDRVTITCRASQGISSNLNWYQQKPGKAPKLLIYAASNLQSGPSRFSGSGSGTDFTLTISSLQPEDFAVYYCQQYSDQSYTFGQGTKVEIKR
notes: HuCAL GOLD monovalent Fab, kappa
For the molecule B4, in test [3], the “IC50, XTT-proliferation assay on HUVEC” value is 11.2 µg/ml and 225 nM. The Kd in test [1] stood at 7.5 nM.

B5: MOR04977 IgG4-Pro (antibody, V domains shown)
VH: QVQLVESGGGLVQPGGSLRLSCAASGFTFSSYGMSWVRQAPGKGLEWVSFIEPKWRGGATHYAASVKGRFTISRDNSKNTLYLQMNSLRAEDTAVYYCARGLGDYGHHHGLSGIFDYWGQGTLVTVSS
VL: DIQMTQSPSSLSASVGDRVTITCRASQGISSNLNWYQQKPGKAPKLLIYAASNLQSGPSRFSGSGSGTDFTLTISSLQPEDFATYYCQQYSSNPQTFGQGTKVEIKR
Take B5: in test [5], the “IC50, transwell migration of HUVEC towards fibronectin” value (“IC50, transwell migration” below) was determined as 1 µg/mL.

B6: MOR04974 Fab (Fab, V domains shown)
VH: QVQLVESGGGLVQPGGSLRLSCAASGFTFSSYGMSWVRQAPGKGLEWVSGIRAKQSGYATDYAAPVKGRFTISRDNSKNTLYLQMNSLRAEDTAVYYCARGLGDYGHHHGLSGIFDYWGQGTLVTVSS
VL: DIQMTQSPSSLSASVGDRVTITCRASQGISSNLNWYQQKPGKAPKLLIYAASNLQSGPSRFSGSGSGTDFTLTISSLQPEDFATYYCQQYASPRQTFGQGTKVEIKR
For the molecule B6, in test [3], the “IC50, XTT-proliferation assay on HUVEC” value was 0.06 µg/ml and 1.2 nM. Moreover, the binding result in test [4] was “no binding”.

B7: MOR04975 IgG4-Pro (antibody, V domains shown)
VH: QVQLVESGGGLVQPGGSLRLSCAASGFTFSSYGMSWVRQAPGKGLEWVSGIRAKQSGYATDYAAPVKGRFTISRDNSKNTLYLGMNSLRAEDTAVYYCARGLGDYGHHHGLSGIFDYWGQGTLVTVSS
VL: DIQMTQSPSSLSASVGDNVTITCRASQGISSNLNWYQQKPGKAPKLLIYAASNLQSGPSRFSGSGSGTDFTLTISSLQPEDFATYYCQQYEFGIQTFGQGTKVEIKR
As to B7, the “IC50, transwell migration” value in test [5] is 1.5 µg/mL.

B8: MOR04974 IgG4-Pro (antibody, V domains shown)
VH: QVQLVESGGGLVQPGGSLRLSCAASGFTFSSYGMSWVRQAPGKGLEWVSGIRAKQSGYATDYAAPVKGRFTISRDNSKNTLYLGMNSLRAEDTAVYYCARGLGDYGHHHGLSGIFDYWGQGTLVTVSS
VL: DIQMTGSPSSLSASVGDRVTITCRASQGISSNLNWYQQKPGKAPKLLIYAASNLQSGPSRFSGSGSGTDFTLTISSLQPEDFATYYCQQYASPRQTFGQGTKVEIKR
For B8, the “IC50, transwell migration” value in test [5] stood at 1 µg/mL.

B9: MOR04624 IgG1 (antibody, V domains shown)
VH: QVQLVESGGGLVQPGGSLRLSCAASGFTFSSYGMSWVRQAPGKGLEWVSSISYSDSNTYYADSVKGRFTISRDNSKNTLYLQMNSLRAEDTAVYYCARGLGDYGHHHGLSGIFDYWGQGTLVTVSS
VL: DIQMTQSPSSLSASVGDRVTITCRASQGISSNLNWYQQKPGKAPKLLIYAASNLQSGPSRFSGSGSGTDFTLTISSLQPEDFAVYYCQQYSDQSYTFGQGTKVEIKR
notes: Human IgG1 kappa (MorphoSys HuCAL IgG Vector Kit); also called IgG1 MOR04624
With B9, the binding result in test [6] was “no binding”. Besides, the Kd in test [2] worked out at 3.1 nM.

B10: MOR04985 IgG1 (antibody, V domains shown)
VH: QVQLVESGGGLVQPGGSLRLSCAASGFTFSSYGMSWVRQAPGKGLEWVSGIRAKQSGYATDYAAPVKGRFTISRDNSKNTLYLQMNSLRAEDTAVYYCARGLGDYGHHHGLSGIFDYWGQGTLVTVSS
VL: DIQMTQSPSSLSASVGDRVTITCRASQGISSNLNWYQQKPGKAPKLLIYAASNLQSGPSRFSGSGSGTDFTLTISSLQPEDFAVYYCQQYSDQSYTFGQGTKVEIKR
Take B10: the binding result in test [6] was “no binding”. Besides, the “EC50, inhibition of HUVEC adhesion to fibronectin” value (shortened to “EC50, inhibition of HUVEC adhesion”) in test [7] is 0.5 µg/ml and 3.3 nM.

B11: MOR04985 Fab (Fab, V domains shown)
VH: QVQLVESGGGLVQPGGSLRLSCAASGFTFSSYGMSWVRQAPGKGLEWVSGIRAKQSGYATDYAAPVKGRFTISRDNSKNTLYLQMNSLRAEDTAVYYCARGLGDYGHHHGLSGIFDYWGQGTLVTVSS
VL: DIQMTQSPSSLSASVGDRVTITCRASQGISSNLNWYQQKPGKAPKLLIYAASNLQSGPSRFSGSGSGTDFTLTISSLQPEDFAVYYCQQYSDQSYTFGQGTKVEIKR
In the case of B11, the “IC50, XTT-proliferation assay on HUVEC” value in test [3] was 0.09 µg/ml and 1.8 nM. Also, in test [4], the binding result is reported as “no binding”.

B12: MOR04977 IgG1 (antibody, V domains shown)
VH: QVQLVESGGGLVQPGGSLRLSCAASGFTFSSYGMSWVRQAPGKGLEWVSFIEPKWRGGATHYAASVKGRFTISRDNSKNTLYLQMNSLRAEDTAVYYCARGLGDYGHHHGLSGIFDYWGQGTLVTVSS
VL: DIQMTQSPSSLSASVGDRVTITCRASQGISSNLNWYQQKPGKAPKLLIYAASNLQSGPSRFSGSGSGTDFTLTISSLQPEDFATYYCQQYSSNPQTFGQGTKVEIKR
With B12, the binding result in test [6] was “no binding”. Further, the “EC50, inhibition of HUVEC adhesion” value in test [7] is 0.4 µg/ml and 2.6 nM.

B13: MOR04977 Fab (Fab, V domains shown)
VH: QVQLVESGGGLVQPGGSLRLSCAASGFTFSSYGMSWVRQAPGKGLEWVSFIEPKWRGGATHYAASVKGRFTISRDNSKNTLYLQMNSLRAEDTAVYYCARGLGDYGHHHGLSGIFDYWGQGTLVTVSS
VL: DIQMTQSPSSLSASVGDRVTITCRASQGISSNLNWYQQKPGKAPKLLIYAASNLQSGPSRFSGSGSGTDFTLTISSLQPEDFATYYCQQYSSNPQTFGQGTKVEIKR
With B13, in test [3], the “IC50, XTT-proliferation assay on HUVEC” value is 0.09 µg/ml and 1.9 nM. Besides, in test [4], the binding result is listed as “no binding”.

B14: MOR04975 IgG1 (antibody, V domains shown)
VH: QVQLVESGGGLVQPGGSLRLSCAASGFTFSSYGMSWVRQAPGKGLEWVSGIRAKQSGYATDYAAPVKGRFTISRDNSKNTLYLQMNSLRAEDTAVYYCARGLGDYGHHHGLSGIFDYWGQGTLVTVSS
VL: DIQMTQSPSSLSASVGDRVTITCRASQGISSNLNWYQQKPGKAPKLLIYAASNLQSGPSRFSGSGSGTDFTLTISSLQPEDFATYYCQQYEFGIQTFGQGTKVEIKR
For B14, the binding result in test [6] is reported as “no binding”. For the same molecule, the “EC50, inhibition of HUVEC adhesion” value in test [7] was 0.33 µg/ml and 2 nM.

B15: MOR04975 Fab (Fab, V domains shown)
VH: QVQLVESGGGLVQPGGSLRLSCAASGFTFSSYGMSWVRQAPGKGLEWVSGIRAKQSGYATDYAAPVKGRFTISRDNSKNTLYLQMNSLRAEDTAVYYCARGLGDYGHHHGLSGIFDYWGQGTLVTVSS
VL: DIQMTQSPSSLSASVGDRVTITCRASQGISSNLNWYQQKPGKAPKLLIYAASNLQSGPSRFSGSGSGTDFTLTISSLQPEDFATYYCQQYEFGIQTFGQGTKVEIKR
notes: also called MQR04975
In the case of B15, the “IC50, XTT-proliferation assay on HUVEC” value in test [3] is 0.09 µg/ml and 1.8 nM. In addition, the binding result in test [4] is given as “no binding”.
